Measured values taken from patent publication US20080032921A1.

B1: Flu.NP.111 (peptide)
peptide: LILYDKEEIRRIWRQ
modifications: not checked
B2: Flu.NP.238 (peptide)
peptide: QKAMMDQVRESRNPG
modifications: not checked
B3: Flu.NP.488 (peptide)
peptide: GSYFFGDNAEEYDN
modifications: not checked
B4: Flu.NS1.68 (peptide)
peptide: VERILKEESDEALKM
modifications: not checked
B5: Flu.PA.658 (peptide)
peptide: LEGFSAESRKLLLVV
modifications: not checked
B6: Flu.PA.694 (peptide)
peptide: EECLINDPWVLLNAS
modifications: not checked
B7: Flu.PB1.199 (peptide)
peptide: TKKMVTQRTIGKKKQ
modifications: not checked
B8: Flu.PB1.535 (peptide)
peptide: NNMINNDLGPATAQM
modifications: not checked
B9: Flu.PB1.590 (peptide)
peptide: AGLLVSDGGPNLYNI
modifications: not checked

Key:
HLA-DR DRB1*0101 (human) [1] = experiment: competition assay, purified HLA, inhibition of 125I-labelled reference peptide
HLA-DR DRB1*0301 (human) [2] = experiment: as above
HLA-DR DRB1*0401 (human) [3] = experiment: as above
HLA-DR DRB1*0404 (human) [4] = experiment: as above
HLA-DR DRB1*0405 (human) [5] = experiment: as above
HLA-DR DRB1*1302 (human) [6] = experiment: as above
HLA-DR DRB1*0101 (human) [7] = experiment: competition with 125I-labelled peptide, purified HLA
HLA-DR DRB1*0301 (human) [8] = experiment: as above
HLA-DR DRB1*0401 (human) [9] = experiment: as above
HLA-DR DRB1*0404 (human) [10] = experiment: as above
HLA-DR DRB1*0405 (human) [11] = experiment: as above
HLA-DR DRB1*1302 (human) [12] = experiment: as above
HLA-DR DRB1*0701 (human) = experiment: as above
HLA-DR DRB1*0802 (human) = experiment: as above
HLA-DR DRB1*1101 (human) = experiment: as above
HLA-DR DRB1*1501 (human) = experiment: as above
HLA-DR DRB4*0101 (human) = experiment: as above
HLA-DR DRB5*0101 (human) = experiment: as above
[13] = biological target: purified HLA DRB1*0101 (human); experiment: competition with 125I-labelled reference peptide, purified HLA
[14] = biological target: purified HLA DRB1*0301 (human); experiment: as above
[15] = biological target: purified HLA DRB1*0401 (human); experiment: as above
[16] = biological target: purified HLA DRB1*0404 (human); experiment: as above
[17] = biological target: purified HLA DRB1*0405 (human); experiment: as above
[18] = biological target: purified HLA DRB1*1302 (human); experiment: as above

Binder	IC50 (HLA-DR DRB1*0101 (human) [1]) [nM]	IC50 (HLA-DR DRB1*0301 (human) [2]) [nM]	IC50 (HLA-DR DRB1*0401 (human) [3]) [nM]	IC50 (HLA-DR DRB1*0404 (human) [4]) [nM]	IC50 (HLA-DR DRB1*0405 (human) [5]) [nM]	IC50 (HLA-DR DRB1*1302 (human) [6]) [nM]	IC50 (HLA-DR DRB1*0101 (human) [7]) [nM]	IC50 (HLA-DR DRB1*0401 (human) [9]) [nM]	IC50 (HLA-DR DRB1*0404 (human) [10]) [nM]	IC50 (HLA-DR DRB1*1302 (human) [12]) [nM]	further results
B1	7180	22	12400	262	7500	3100	–	–	–	–	–
B2	17600	450	856	1830	13100	10500	–	–	–	–	–
B3	> 10000	139	1950	> 10000	65	> 10000	–	–	–	–	–
B4	5190	–	679	572	> 10000	5060	–	–	–	–	–
B5	–	–	–	–	–	–	12	861	1150	2270	IC50 (HLA-DR DRB1*0301 (human) [8]): 661 nM; IC50 (HLA-DR DRB1*0405 (human) [11]): 3860 nM
B6	–	–	–	–	–	–	34	1220	183	246	IC50 (HLA-DR DRB1*0301 (human) [8]): 618 nM; IC50 (HLA-DR DRB1*0405 (human) [11]): 15000 nM
B7	–	–	–	–	–	–	1150	71	62	6120	IC50 (HLA-DR DRB1*0701 (human)): 14100 nM; IC50 (HLA-DR DRB1*0802 (human)): 55 nM; IC50 (HLA-DR DRB1*1101 (human)): 449 nM; IC50 (HLA-DR DRB1*1501 (human)): 9710 nM; IC50 (HLA-DR DRB4*0101 (human)): 57 nM; IC50 (HLA-DR DRB5*0101 (human)): 4.1 nM
B8	–	–	–	–	–	–	–	–	–	–	IC50 [13]: 3080 nM; IC50 [14]: 527 nM; IC50 [15]: 798 nM; IC50 [16]: 1830 nM; IC50 [17]: > 10000 nM; IC50 [18]: 477 nM
B9	–	–	–	–	–	–	–	–	–	–	IC50 [13]: 8120 nM; IC50 [14]: 107 nM; IC50 [15]: 3000 nM; IC50 [16]: 3490 nM; IC50 [17]: > 10000 nM; IC50 [18]: 105 nM
